Reference: article PMC4431388, “Effect of the distal histidine on the peroxidatic activity of monomeric cytoglobin” (F1000Research, 2015)
Substitutions are numbered along the chain they refer to. In names and notes the source's numbering stands.

B1: human cytoglobin, wildtype (natural protein, UniProt Q8WWM9 1-190, looked up)
chain: MEKVPGEMEIERRERSEELSEAERKAVQAMWARLYANCEDVGVAILVRFFVNFPSAKQYFSQFKHMEDPLEMERSPQLRKHACRVMGALNTVVENLHDPDKVSSVLALVGKAHALKHKVEPVYFKILSGVILEVVAEEFASDFPPETQRAWAKLRGLIYSHVTAAYKEVGWVQQVPNATTPPATLPSSGP
notes: cytoglobin, human; gene bought from OriGene and transferred into pET28a; monomer runs at 21 kDa; Haem protein; The preparation holds monomer, dimer and a minor polymerised fraction; also called Cygb; WT Cygb
B2: human cytoglobin H81V (natural protein, UniProt Q8WWM9 1-190, looked up)
chain: B1 chain with H81V
notes: cytoglobin, human, distal histidine mutant; Haem protein; also called H81V Cygb; histidine 81(E7) to valine mutation
B3: human cytoglobin H81Y (natural protein, UniProt Q8WWM9 1-190, looked up)
chain: B1 chain with H81Y
notes: cytoglobin, human, distal histidine mutant; Haem protein; also called H81Y Cygb; histidine 81 to tyrosine mutation

Target: the molecule itself
Experiment: SEC; G75 Superdex column equilibrated with 0.1 M sodium phosphate buffer pH 7.4; absorbance at 280 nm; monomer to dimer of the recombinant protein as purified

Protein	stoichiometry N	binding result
B1	2	–
B2	–	binds
B3	–	binds
